# Ends that are not written are not given here.
# Assays:
# [1] = Pharmacokinetics in swiss mice, plasma human amylin by ELISA; assay type: in vivo; conditions: 10 μg peptide in 100 uL saline, FIG. 6
# Experimental: The pharmacokinetics of the monoPEGylated human amylin product were characterized in vivo in swiss mice. Mice were housed in a temperature-controlled room with a light-dark cycle of 12 h. Water and food were available ad libitum. Two groups were formed, control (free human amylin, not PEGylated) and PEGylated amylin. Animals received 100 uL of saline containing 10 μg of human amylin peptides, either free human amylin or purified monoPEGylated human amylin. Blood was collected retro-orbitally from mice (n=3 mice for each time interval), and the plasma was subjected to ELISA assay for human amylin as provided by the manufacturer (Millipore, Cat Number EZHA-52K—http://www.millipore.com/catalogue/item/ezha-52k).
# [2] = Amyloid aggregation assay with thioflavin T (ThT); assay type: physicochemical; conditions: PBS pH 7.4, 37° C.
# Experimental: Purified monoPEGylated human amylin of example 1 was re-suspended in DMSO and diluted to PBS pH 7.4 and allowed to incubate at 37° C. Samples were evaluated for amyloid aggregates by using the amyloid chromogenic probe thioflavin T (ThT).
# RAMP3 = molecular target: T1, RAMP3 (Homo sapiens, UniProt O60896); test: RAMP-FITC fluorescence anisotropy coreceptor binding assay (RAMP3); conditions: fluorescence anisotropy of RAMP-FITC, duplicate assays, FIG. 3 and 4
# T1 sequence (O60896 24-148): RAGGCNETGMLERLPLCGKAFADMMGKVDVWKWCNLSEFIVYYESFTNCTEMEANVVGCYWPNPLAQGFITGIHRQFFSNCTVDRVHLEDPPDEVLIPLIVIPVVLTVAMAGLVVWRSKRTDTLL
# Experimental: (§1) Purified monoPEGylated human amylin was assayed for RAMP2 and RAMP3 coreceptor binding interaction.
# (§2) RAMP (receptor activity modifying protein) was labeled with fluorescein isothiocianate for 1 h at 4° C. in PBS ([…]) pH 7.4, and purified by size exclusion chromatography (SEC) in Sepharose G25 (agarose-based chromatography media, provided by the US company GE HealthCare) using the same buffer. Labelling was confirmed by UV absorbance measurements at A280 and A490, allowing estimation of coupling efficiency, relying on about 0.5 fluorescein/RAMP molecule.
# RAMP2 = RAMP2 (Homo sapiens, UniProt O60895); test: RAMP-FITC fluorescence anisotropy coreceptor binding assay (RAMP2); conditions: fluorescence anisotropy of RAMP-FITC, duplicate assays, FIG. 3 and 4
# Experimental: as §1, §2
# Sequence of RAMP2 (O60895 43-175, species assumed): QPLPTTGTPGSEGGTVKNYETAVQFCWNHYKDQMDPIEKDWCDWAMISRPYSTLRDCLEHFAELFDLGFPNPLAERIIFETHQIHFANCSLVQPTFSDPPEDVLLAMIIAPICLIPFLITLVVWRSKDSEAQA
substance,measurement,setting,value
"free human amylin: 37-aminoacid amyloid polypeptide of the Langerhans islets, CAS RN: 106602-62-4; not PEGylated control (KCNTATCATQRLANFLVHSSNNFGAILSSTNVGSNTY; not fully specified (C-terminus, bridges); cysteine pairing not given here)",plasma decay / duration of stability in plasma,[1],fast plasma decay
same,amyloid aggregation (ThT),"[2]; 3 days, FIG. 5",almost all free human amylin was aggregated in amyloid form
"monoPEGylated human amylin: monoconjugate of human amylin and mPEG, purified by C18 reversed phase, peak at 9 Kda (example 1) (KCNTATCATQRLANFLVHSSNNFGAILSSTNVGSNTY; not fully specified (C-terminus, bridges); cysteine pairing not given here; also: mono-mPEG conjugate, site not given here; UniProt P10997 34-70, looked up)",plasma decay / duration of stability in plasma,[1],longer duration of stability in plasma
same,amyloid aggregation (ThT),"[2]; day 7, FIG. 5",no signs of aggregation
HEWL: unrelated protein hen egg white lisozyme used as a control for non-specific binding,apparent binding affinity for coreceptor RAMP3,RAMP3,non-specific binding
same,apparent binding affinity for coreceptor RAMP2,RAMP2,non-specific binding

# Source: patent US20160331811A1, “NON-AGGLOMERATING BIOCONJUGATES OF AMYLIN-MIMETIC COMPOUNDS AND POLYETHYLENEGLYCOL” (UNIVERSIDADE FEDERAL DO RIO DE JANEIRO, priority 2013, published 2016)
